Results on 57 substances are retold here after patent publication US10280205B2, “Method for treating cancer with an activated T lymphocyte that selectively recognizes a cancer cell consisting of specific peptide” (immatics biotechnologies GmbH, priority 2015, dated 2019).

This test addresses HLA-A*02:01 (Homo sapiens, UniProt P04439, D140Y/D185E/D98H/E176V/E277Q/G131W/G231S/I119V/I121R/I166T/I218V/L300P/L318F/N151K/N90K/P208A/P217A/Q86G/Q94H/R138H/R169H/T345S). Put plainly: MHC binding assay: UV-ligand exchange with beta2m ELISA (exchange yield). The following applies: binding to HLA-A*02:01, β2m ELISA. From the text: Candidate peptides for T cell based therapies according to the present invention were further tested for their MHC binding capacity (affinity). The individual peptide-MHC complexes were produced by UV-ligand exchange, where a UV-sensitive peptide is cleaved upon UV-irradiation, and exchanged with the peptide of interest as analyzed. Only peptide candidates that can effectively bind and stabilize the peptide-receptive MHC molecules prevent dissociation of the MHC complexes. To determine the yield of the exchange reaction, an ELISA was performed based on the detection of the light chain (β2m) of stabilized MHC complexes. The assay was performed as generally described in Rodenko et al. (Rodenko et al., 2006).
96 well MAXISorp plates (NUNC) were coated over night with 2 ug/ml streptavidin in PBS at room temperature, washed 4× and blocked for 1 h at 37° C. in 2% BSA containing blocking buffer. […] Peptide-MHC monomers of the UV-exchange reaction were diluted 100 fold in blocking buffer. Samples were incubated for 1h at 37° C., washed four times, incubated with 2 ug/ml HRP conjugated anti-β2m for 1h at 37° C., washed again and detected with TMB solution that is stopped with […]. Absorption was measured at 450 nm. Candidate peptides that show a high exchange yield (preferably higher than 50%, most preferred higher than 75%) are generally preferred for a generation and production of antibodies or fragments thereof, and/or T cell receptors or fragments thereof, as they show sufficient avidity to the MHC molecules and prevent dissociation of the MHC complexes.
In general terms: An ELISA detects its analyte on a solid surface through an enzyme-linked reagent.
With “57 (TLAELQPPVQL; listed as Homo sapiens) [compound 57]”, the “Peptide exchange (MHC class I binding score, peptide exchange yield)” value (from here on “Peptide exchange”) was ““+++” (≥50 = +++)”. Under “59 (IMEDIILTL; listed as Homo sapiens) [compound 59]” stands ““+++” (≥50 = +++)”; under “61 (FLQGYQLHL; listed as Homo sapiens) [compound 61]”, ““++++” (≥75% = ++++)”. Under “62 (VLLDVSAGQLLM; listed as Homo sapiens) [compound 62]” stands ““++++” (≥75% = ++++)”; under “63 (YLLPSGGSVTL; listed as Homo sapiens) [compound 63]”, ““++” (≥20% = ++)”; under “64 (YAAPGGLIGV; listed as Homo sapiens) [compound 64]”, ““++” (≥20% = ++)”. With “66 (FLDENIGGVAV; listed as Homo sapiens) [compound 66]”, the “Peptide exchange” value is reported as ““+++” (≥50 = +++)”. “67 (TLLAEALVTV; listed as Homo sapiens) [compound 67]”: the “Peptide exchange” value is ““+++” (≥50 = +++)”.

As for “68 (SLMELPRGLFL; listed as Homo sapiens) [compound 68]”, the “Peptide exchange” value is ““++++” (≥75% = ++++)”. For the substance “69 (FQLDPSSGVLVTV; listed as Homo sapiens) [compound 69]”, the “Peptide exchange” value is given as ““+++” (≥50 = +++)”. On to “70 (GLLDYPVGV; listed as Homo sapiens) [compound 70]”, for which the “Peptide exchange” value was ““+++” (≥50 = +++)”. The result for “71 (GILARIASV; listed as Homo sapiens) [compound 71]” reads ““+++” (≥50 = +++)”. The result for “72 (SLLELDGINL; listed as Homo sapiens) [compound 72]” reads ““+++” (≥50 = +++)”. Under “73 (NIFDLQIYV; listed as Homo sapiens) [compound 73]” stands ““+++” (≥50 = +++)”; under “74 (ALLDPEVLSIFV; listed as Homo sapiens) [compound 74]”, ““+++” (≥50 = +++)”; under “75 (GLLEVMVNL; listed as Homo sapiens) [compound 75]”, ““+++” (≥50 = +++)”. Consider “76 (ILIDSIYKV; listed as Homo sapiens) [compound 76]”, for which the “Peptide exchange” value was ““+++” (≥50 = +++)”. The result for “77 (ILVEADGAWVV; listed as Homo sapiens) [compound 77]” reads ““++++” (≥75% = ++++)”; that for “78 (SLFSSLEPQIQPV; listed as Homo sapiens) [compound 78]”, ““+++” (≥50 = +++)”. On to “80 (FLYDNLVESL; listed as Homo sapiens) [compound 80]”, for which the “Peptide exchange” value is reported as ““++” (≥20% = ++)”.

For the substance “81 (FLFSQLQYL; listed as Homo sapiens) [compound 81]”, the “Peptide exchange” value is recorded as ““++” (≥20% = ++)”. Consider “82 (FLSSVTYNL; listed as Homo sapiens) [compound 82]”, for which the “Peptide exchange” value is ““+++” (≥50 = +++)”. The result for “83 (ILAPTVMMI; listed as Homo sapiens) [compound 83]” reads ““+++” (≥50 = +++)”. The result for “84 (VTFGEKLLGV; listed as Homo sapiens) [compound 84]” reads ““++” (≥20% = ++)”; that for “85 (KMSELRVTL; listed as Homo sapiens) [compound 85]”, ““+++” (≥50 = +++)”. Under “86 (NLIGKIENV; listed as Homo sapiens) [compound 86]” stands ““+++” (≥50 = +++)”; under “87 (ALPEAPAPLLPHIT; listed as Homo sapiens) [compound 87]”, ““++” (≥20% = ++)”.

In the case of “88 (FLLVGDLMAV; listed as Homo sapiens) [compound 88]”, the “Peptide exchange” value is on record as ““+++” (≥50 = +++)”. Take “89 (YILPTETIYV; listed as Homo sapiens) [compound 89]”: the “Peptide exchange” value is ““++++” (≥75% = ++++)”.

For “90 (TLLQIIETV; listed as Homo sapiens) [compound 90]”, the “Peptide exchange” value is recorded as ““+++” (≥50 = +++)”. In the case of “91 (IMQDFPAEIFL; listed as Homo sapiens) [compound 91]”, the “Peptide exchange” value was ““++++” (≥75% = ++++)”. The result for “92 (YLIPFTGIVGL; listed as Homo sapiens) [compound 92]” reads ““++” (≥20% = ++)”. The result for “93 (LLQAIKLYL; listed as Homo sapiens) [compound 93]” reads ““++” (≥20% = ++)”. “94 (YLIDIKTIAI; listed as Homo sapiens) [compound 94]”: the “Peptide exchange” value is ““++” (≥20% = ++)”. Under “95 (SVIPQIQKV; listed as Homo sapiens) [compound 95]” stands ““+++” (≥50 = +++)”; under “96 (YIFTDNPAAV; listed as Homo sapiens) [compound 96]”, ““+++” (≥50 = +++)”; under “97 (SLINGSFLV; listed as Homo sapiens) [compound 97]”, ““+++” (≥50 = +++)”.

“98 (LIIDQADIYL; listed as Homo sapiens) [compound 98]”: the “Peptide exchange” value is listed as ““+++” (≥50 = +++)”. Under “99 (ALVSKGLATV; listed as Homo sapiens) [compound 99]” stands ““++” (≥20% = ++)”; under “100 (YLLSTNAQL; listed as Homo sapiens) [compound 100]”, ““++++” (≥75% = ++++)”.

With “101 (ILVGGGALATV; listed as Homo sapiens) [compound 101]”, the “Peptide exchange” value is recorded as ““+++” (≥50 = +++)”. As for “102 (YLFESEGLVL; listed as Homo sapiens) [compound 102]”, the “Peptide exchange” value is on record as ““+++” (≥50 = +++)”.

“103 (TLAEEVVAL; listed as Homo sapiens) [compound 103]”: the “Peptide exchange” value is ““+++” (≥50 = +++)”. As for “104 (STMEQNFLL; listed as Homo sapiens) [compound 104]”, the “Peptide exchange” value is reported as ““++++” (≥75% = ++++)”.

In the case of “106 (LLYDAVHIVSV; listed as Homo sapiens) [compound 106]”, the “Peptide exchange” value was ““+++” (≥50 = +++)”.

With “107 (FLQPVDDTQHL; listed as Homo sapiens) [compound 107]”, the “Peptide exchange” value is ““+++” (≥50 = +++)”. Under “108 (ALFPGVALLLA; listed as Homo sapiens) [compound 108]” stands ““++++” (≥75% = ++++)”.

Turning to “109 (IILSILEQA; listed as Homo sapiens) [compound 109]”, the “Peptide exchange” value is ““++++” (≥75% = ++++)”. Consider “110 (FLSQVDFEL; listed as Homo sapiens) [compound 110]”, for which the “Peptide exchange” value is ““+++” (≥50 = +++)”.

For “111 (YVWGFYPAEV; listed as Homo sapiens) [compound 111]”, the “Peptide exchange” value is on record as ““+++” (≥50 = +++)”. As for “114 (SLVGEPILQNV; listed as Homo sapiens) [compound 114]”, the “Peptide exchange” value is recorded as ““++” (≥20% = ++)”. Under “115 (AIAGAGILYGV; listed as Homo sapiens) [compound 115]” stands ““++” (≥20% = ++)”; under “116 (YHIDEEVGF; listed as Homo sapiens) [compound 116]”, ““+” (≥10% = +)”; under “117 (ILPDGEDFLAV; listed as Homo sapiens) [compound 117]”, ““+++” (≥50 = +++)”.

In the case of “119 (FLYIGDIVSL; listed as Homo sapiens) [compound 119]”, the “Peptide exchange” value is reported as ““++++” (≥75% = ++++)”.

For “120 (ALLGIPLTLV; listed as Homo sapiens) [compound 120]”, the “Peptide exchange” value is ““+++” (≥50 = +++)”. Consider “121 (GVVDPRAISVL; listed as Homo sapiens) [compound 121]”, for which the “Peptide exchange” value is ““++” (≥20% = ++)”.
